According to patent publication US10131920B2, “Nucleic acid molecules” (MEDIMMUNE LIMITED, priority 2013, dated 2018):

Key:
[1] = system: GFPY40 reporter (GFP containing an amber codon) in HEK293 cells stably expressing pylRS; assay: Amber suppression-dependent GFP expression (GFPY40 reporter), transient transfection, flow cytometry; type: cell-based
Description: (§1) To assess the function of the tRNA variants, an in vitro assay was established where cells are transiently transfected with a tRNA construct and a reporter construct encoding GFP containing an amber codon interrupting its reading frame (GFPY40). HEK293 cells stably expressing pylRS were transiently transfected with various tRNA constructs (1 ug) and the GFPY40 reporter (1 ug). In the absence of elements that support amber suppression, a truncated GFP protein is generated and the cell is not fluorescent. However, the introduction of a functional tRNA and the presence of a nnAA that supports amber suppression allows for the production of full length GFP resulting in fluorescent cells. The level of GFP expression reflects the efficiency of amber suppression and is quantified by flow cytometry. tRNA genes encoding wild type tRNApyl (WT tRNA), or containing mutations in the B-box (B tRNA—SEQ ID No 9), in both the A and B box (A2B tRNA—SEQ ID No 10), or in the A box (A1 tRNA-SEQ ID No 7; or A2 tRNA SEQ ID No 11), all under control of the H1 promoter were generated by site directed mutagenesis and assayed. The H1 promoter ensured that the variants were expressed and allowed us to examine the functional effects of the mutations introduced into the tRNA genes. In addition a sample transfected with GFPY40 alone was generated to establish background GFP levels. The transfected cells were grown in presence of the aminoacid analogue lys azide (2 mM) and incubated for 18 hours. GFP fluorescence was then assayed by flow cytometry and mean fluorescence intensity determined for each sample. Data were analysed with FCS Express and the mean fluorescence intensity of each sample determined using markers that constrain the data set to cells showing fluorescence above negative controls.
To begin to assess whether the tRNA mutations can support expression of the tRNA we assayed tRNA constructs encoding the wild type tRNA in the absence of the H1 promoter. Constructs encoding wild type tRNApyl (WT tRNA) or containing mutations in the B-box (B tRNA—SEQ ID No 9) or in both the A and B box (A2B; A2B tRNA—SEQ ID No 10) were assayed using our in vitro amber suppression assay described above. WT tRNA under control of the H1 promoter (H1-tRNA) was used as a positive control, and in addition one sample was transfected only with the GFPY40 reporter to illustrate background amber suppression in the absence of tRNA. The transfected cells were exposed to 2 mM lys-azide nnAA and cells incubated for three days. GFP expression was examined by flow cytometry and mean fluorescence intensity determined.
Two copies of the WT, B, or A2B tRNA were cloned in tandem to generate a single vector containing two copies of WT, B, or A2B tRNA. To assess the effect of increased gene doses by these constructs, cells expressing WTpylRS were transiently transfected with the tRNA constructs and the GFPY40 reporter construct and GFP expression assayed after two days.
The activity of each construct was assessed by transient transfection into cells stably expressing WT pylRS with the GFPY40 reporter as described above. For this experiment, 1 ug of a PCR product encoding each of the indicated constructs was used. In each case, cells were exposed to the lys azide nnAA for three days and GFP levels assayed by flow cytometry. Mean fluorescence intensities were determined for each sample and plotted (FIG. 8).

[2] = system: GFPY40 reporter in 3H7 cells; assay: Amber suppression-dependent GFP expression (GFPY40 reporter), transient transfection of 3H7 cells, flow cytometry; type: cell-based; conditions: 1 ug GFPY40 and 1 ug tRNA expression vector, lys-azide, three days
Description: as §1, with “controls. […] The constructs thus are functional and may contain the necessary genetic sequence to enable the expression of the tRNA also in the absence of an upstream promoter element such as the H1 promoter.” for “controls.”
Having established that the B mutation introduced into the pyltRNA sequence enabled expression of the tRNA that supported amber suppression we then asked whether this mutation affected the orthogonality of the tRNA and led to the incorporation of natural amino acids. To do this 3H7 cells were transiently transfected with expression constructs encoding WT-tRNA, B-tRNA, H1-tRNA and H1-B tRNA along with the GFPY40 reporter. Transfected cells were grown in the presence of 2 mM lys azide or absence of nnAA as indicated (FIG. 6), and GFP expression assessed by flow cytometry after three days. In addition, a sample transfected only with GFPY40 was examined to determine background amber suppression levels in the absence of tRNA. […] A comparison of GFP expression between the WT tRNA (MFI 33,781) and tRNA B (232,505) lacking extragenic promoter elements confirms that the B mutation generates a functional intragenic promoter. Indeed, the B tRNA construct enabled a seven-fold increase in the level of amber suppression dependent expression of GFP over WT tRNA.
We also tested the utility of a bicistronic tRNA expression construct for its ability to express tRNApyl. Here, the murine tRNA Glu and tRNA Asp were utilized. In each case, multiple repeats of the constructs were generated to increase activity (3×Glu-pyl and 2×Asp-pyl). Here, 3H7 cells were transiently transfected with 1 ug of the reporter construct GFPY40 and 1 ug of the indicated tRNA expression vectors (FIG. 11) and incubated with lys-azide for three days. Data were collected by flow cytometry and mean fluorescence intensities for each sample were plotted. […] The construct consisting of the 7SL WT tRNA (MFI=312) was included as a metric for low efficiency. In addition cell lines containing only the GFPY40 reporter were used as negative controls (MFI=0).

B1: 7SL B tRNA: tRNA-B downstream of the 7SL promoter 5′ region (nucleic acid)
DNA: CCCAGTTGATGACGTCACCATACCACAGCTTCTAGTGCTATTCTGCGCCGGTATCCGACCACCAGGAAACCTGATCATGTAGATCGAATGGACTCTAAATCCGTTCAGCCGGGTTCGATTCCCGGGGTTTCCGGACAAGTGCGGTTTTT
modifications: Synthetic sequence 7SL tRNA-B construct
notes: tRNA-B downstream of the 7SL promoter 5′ region
GFP MFI, FIG. 9 ([1]; 1 ug GFPY40 reporter and 1 ug tRNA expression plasmid): 167,024 | GFP MFI, FIG. 8 ([1]; 1 ug PCR product of each construct, lys azide nnAA, three days): 265,396 | GFP MFI, FIG. 10 ([1]; cells stably expressing WTpylRS, lys azide, three days): 520 | GFP MFI, FIG. 11 [2]: 520
